Assay [1] concerns the target 003m-P215S (RSV). Kind of assay: flow cytometry, Expi293F cells, Lipofectamine 2000-mRNA. In general terms: A flow cytometer gives signals particle by particle.
Assay [2] addresses 003m-P215S-1×GCN4t (RSV). The assay is described as above.
For assay [3], the target named is 003m-P215S-S-3N. Described as above.
For assay [4], the target named is 003m-P215S-ΔF111 (RSV). The description is as above.
Assay [5] addresses 003m-P215S-ΔF111-1×GCN4t (RSV). The description is as above.
Assay [6] has as its target 003m-P215S-ΔF111-S-3N. The description is as above.
Assay [7] concerns the target 003m-P215S-1×Fibritin (RSV). Described as above.
Assay [8] deals with 003m-P215S-1×GCN4t (RSV). The description is as above. This is another data set of the same source.
For assay [9], the target named is 003m-P215S-1×GCN4t-1,2,3N. Described as above.
Assay [10] concerns the target 003m-P215S-1×GCN4t-1,2N. The description is as above.
For assay [11], the target named is 003m-P215S-1×GCN4t-1,3N. The assay is described as above.
For assay [12], the target named is 003m-P215S-1×GCN4t-1N. The description is as above.
The target of assay [13] is 003m-P215S-1×GCN4t-2N. The description is as above.
Assay [14] has as its target 003m-P215S-1×GCN4t (RSV). Described as above. The source holds these as a separate data set.
Assay [15] deals with 003m-P215S-DELL-1×GCN4t (RSV). The assay is described as above.
The target of assay [16] is 003m-P215S-KST-1×GCN4t (RSV). The assay is described as above.
In assay [17] the target is 003m-P215S-NAG-1×GCN4t (RSV). The assay is described as above.
The target in assay [18] is 003m-1×GCN4t (RSV). Kind of assay: flow cytometry, Expi293F cells transfected with the antigen's mRNA.
Assay [19] concerns the target 003m-2×GCN4t (RSV). The assay is described as above.
For assay [20], the target named is DS-Cav1 (RSV). The assay is described as above.
Assay [21] deals with DS-Cav1-1×GCN4t (RSV). The assay is described as above.
Assay [22] deals with DS-Cav1-2×GCN4t (RSV). The assay is described as above.
Assay [23] addresses 003m-P215S-ΔF111-1×GCN4t (RSV). Kind of assay: flow cytometry, Expi293F cells, mRNA-LNP (RL151); row 003m-P215S-ΔF111-1×GCN4t.

Where two headings read alike, the source gives them in different places.

On to AM14-AF488 (antibody), for which the MFI in assay [1] is 759000; in [2], 5650; in [3], 127000; in assay [4] it was 1.52e+06; in assay [5] it was 12500; in assay [6], 1.08e+06. In addition, the MFI amounted to 22300 in [7]; 4870 in assay [8]; 89600 in assay [9]; 58400 in assay [10]; 71000 in assay [11]; 37400 in assay [12]. Moreover, the MFI in assay [13] was found to be 28800; in [14] it was 21600; in assay [15], 31400; in assay [16], 33800; in assay [17], 45700; in assay [18], 6550. The MFI in assay [19] was 434000; in assay [20], 108000; in [21] it was 923; in assay [22], 437; in [23], 821.

On to D25-AF488 (antibody), for which the MFI in [1] was found to be 486000; in assay [2], 8630; in [3], 148000; in assay [4] it was 1.02e+06; in assay [5], 14700; in assay [6], 704000. Further, the MFI was 23000 in assay [7]; 10400 in assay [8]; 147000 in [9]; 100000 in [10]; 122000 in assay [11]; 59400 in assay [12]. Moreover, the MFI in [13] came to 54000; in assay [14] it was 32800; in assay [15], 35700; in assay [16], 31600; in assay [17], 33900; in [18] it was 12100. Also, the MFI in assay [19] was found to be 173000; in assay [20], 145000; in assay [21], 1790; in [22] it was 1170; in assay [23], 682.
